One assay deals with denosumab (XGEVA). The experiment in a line: cell-based or functional assay.
For assay [1], the target named is rabbit anti-BSA (ACRIS, #R1048P). Description: cell-based or functional assay.

B1: pCART203 (enzyme)
chain: MDDYQRNATEAYAKEVPHQITSVWTKGVTPPEQFTQGEDVIHAPYLAHQGWYDITKAFDGKDNLLCGAATAGNMLHWWFDQNKTEIEAYLSKHPEKQKIIFNNQELFDLKAAIDTKDSQTNSQLFNYFRDKAFPNLSARQLGVMPDLVLDMFINGYYLNVFKTQSTDVNRPYQDKDKRGGIFDAVFTRGDQTTLLTARHDLKNKGLNDISTIIKQELTEGRALALSHTYANVSISHVINLWGADFNAEGNLEAIYVTDSDANASIGMKKYFVGINAHGHVAISAKKIEGENIGAQVLGLFTLSSGKDIWQKLSGGGHHHHHH
As to B1, the “cleavage efficacy on SDS-PAGE, fold vs pCART144” value with denosumab (XGEVA) was about 3 fold. Further, the “pCART124 ratio, potency ELISA” value in assay [1] was about 3.5 fold.

B2: pCART197 (enzyme)
chain: MDDYQRNATEAYAKEVPHQITSVWTKGVTPLTPEQFRYNNEDVIHAPYLANQGWYDITKAFDGKDNLLCGAATAGNMLHWWFDQNKTEIEAYLSKHPEKQKIIFRNQELFDLKEAIRTKDSQTNSQLFEYFRDKAFPYLSARQLGVMPDLVLDMFINGYYLNVFKTQSTDVKRPYQDKDKRGGIFDAVFTRGNQTTLLTARHDLKNKGLNDISTIIKEELTKGRALALSHTYANVSISHVINLWGADFNAEGNLEAIYVTDSDANASIGMKKYFVGINKHGHVAISAKKIEGENIGAQVLGLFTLSSGKDIWQKLNGGGHHHHHH
As to B2, the “pCART124 ratio (fold change in potency relative to IdeS), potency ELISA” value in assay [1] was 8 fold.

B3: pCART201 (enzyme)
chain: MSVWTKGVTPLTPEQFRYNNEDVIHAPYLAHQGWYDITKAFDGKDNLLCGAATAGNMLHWWFDQNKTEIEAYLSKHPEKQKIIFNNQELFDLKAAIDTKDSQTNSQLFNYFRDKAFPNLSARQLGVMPDLVLDMFINGYYLNVFKTQSTDVNRPYQDKDKRGGIFDAVFTRGDQTTLLTARHDLKNKGLNDISTIIKQELTEGRALALSHTYANVSISHVINLWGADFNAEGNLEAIYVTDSDANASIGMKKYFVGINAHGHVAISAKKIEGENIGAQVLGLFTLSSGKDIWQKLSGGGHHHHHH
Regarding B3, in assay [1], the “pCART124 ratio (fold change in potency relative to IdeS), potency ELISA” value is 8 fold.

The values above are taken from patent US20200179497A1 (HANSA BIOPHARMA, published 2020).
